This note sets out measurements from patent US20080207501A1 (AMYLIN PHARMACEUTICALS, published 2008).

Ends that are not written are not given here.

The target in experiment [1] is T1, calcitonin receptor (receptor binding assay).
T1 construct: also called rCalcitonin RBA; CT
As to the kind of experiment: calcitonin receptor binding assay, method not described.

Experiment [2] addresses T2, adrenomedullin receptor (receptor binding assay).
T2 chain 1: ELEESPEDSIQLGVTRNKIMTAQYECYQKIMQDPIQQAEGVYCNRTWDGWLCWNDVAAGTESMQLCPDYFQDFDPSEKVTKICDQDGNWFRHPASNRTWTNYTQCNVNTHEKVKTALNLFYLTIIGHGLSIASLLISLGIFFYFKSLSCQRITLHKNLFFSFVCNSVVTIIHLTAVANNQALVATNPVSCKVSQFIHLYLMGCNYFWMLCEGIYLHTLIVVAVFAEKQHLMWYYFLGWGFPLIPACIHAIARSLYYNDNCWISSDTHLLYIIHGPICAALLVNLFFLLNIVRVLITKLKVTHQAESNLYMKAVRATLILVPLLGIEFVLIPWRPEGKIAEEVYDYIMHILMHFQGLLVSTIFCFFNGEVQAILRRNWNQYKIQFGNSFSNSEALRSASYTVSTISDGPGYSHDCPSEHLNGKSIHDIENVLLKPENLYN
T2 chain 2: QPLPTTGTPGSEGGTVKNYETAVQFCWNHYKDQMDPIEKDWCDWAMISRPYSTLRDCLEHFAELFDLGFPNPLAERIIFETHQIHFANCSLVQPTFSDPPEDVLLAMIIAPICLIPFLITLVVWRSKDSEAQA
Briefly: adrenomedullin receptor binding assay, method not described.

Experiment [3] deals with T3, CGRP receptor (membranes prepared from SK-N-MC cells) (UniProt Q16602 23-461; O60894 27-148, limits assumed).
T3 construct: whole, on cells; Endogenous receptor in SK-N-MC cell membranes; also called CGRP receptors; CGRP RBA
Briefly: radioligand displacement, 125I-hCGRP, SK-N-MC cell membranes. On the procedure:
(§1) Solutions were incubated for 60 minutes at 2 C. […] Filters were washed immediately before filtration with 5 ml cold PBS, and immediately after filtration with 15 ml cold PBS. […] Competition curves were generated by measuring binding in the presence of 10⁻¹² to 10⁻⁶ M unlabeled test compound and were analyzed by nonlinear regression using a 4-parameter logistic equation (INPLOT program; […] Software, San Diego, Calif.).

For experiment [4], the target named is amylin receptor (nucleus accumbens membranes prepared from rat brain) (rat, UniProt P32214 25-516). As to the kind of experiment: radioligand displacement, 125I-rat amylin, rat nucleus accumbens membranes. As to the method:
Male Sprague-Dawley® rats (200-250) grams were sacrificed by decapitation. Brains were removed and place in cold phosphate-buffered saline (PBS). From the ventral surface, cuts were made rostral to the hypothalamus, bounded laterally by the olfactory tracts and extending at a 45° angle medially from these tracts. This basal forebrain tissue, containing the nucleus accumbens and surrounding regions, was weighed and homogenized in ice-cold 20 mM HEPES buffer (20 mM HEPES acid, pH adjusted to 7.4 with NaOH at 23° C.). Membranes were washed three times in fresh buffer by centrifugation for 15 minutes at 48,000×g. The final membrane pellet was resuspended in 20 mM HEPES buffer containing 0.2 mM phenylmethylsulfonyl fluoride (PMSF).
as §1
On the technique in general: Loss of bound radioactivity is the signal in a displacement assay; it reports binding, not function.

Chain of amylin receptor (nucleus accumbens membranes prepared from rat brain) (P32214 25-516): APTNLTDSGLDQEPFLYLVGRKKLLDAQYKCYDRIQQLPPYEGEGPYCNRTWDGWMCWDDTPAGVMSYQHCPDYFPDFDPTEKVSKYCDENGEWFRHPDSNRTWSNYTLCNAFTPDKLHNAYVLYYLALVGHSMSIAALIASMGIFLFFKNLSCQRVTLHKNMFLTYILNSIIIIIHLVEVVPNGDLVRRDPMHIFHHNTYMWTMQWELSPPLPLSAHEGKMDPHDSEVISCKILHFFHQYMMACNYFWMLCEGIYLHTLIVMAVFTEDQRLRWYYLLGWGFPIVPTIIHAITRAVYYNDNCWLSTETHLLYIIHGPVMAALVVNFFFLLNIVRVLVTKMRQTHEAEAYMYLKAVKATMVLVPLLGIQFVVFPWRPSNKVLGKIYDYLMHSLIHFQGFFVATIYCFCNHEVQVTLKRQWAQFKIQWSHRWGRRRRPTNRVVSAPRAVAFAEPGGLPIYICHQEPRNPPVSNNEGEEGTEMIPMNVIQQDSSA
T3 sequence (O60894 27-148 limits assumed, chain 2 of 2, one chain of several): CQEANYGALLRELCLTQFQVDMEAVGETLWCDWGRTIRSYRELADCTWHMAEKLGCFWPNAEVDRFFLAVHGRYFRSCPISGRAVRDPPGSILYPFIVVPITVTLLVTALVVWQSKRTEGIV

B1: AFP-6 analog SEQ ID NO: 18 (peptide)
peptide: VGCVLGTCQVQNLSHRLWQLRQDSAPVDPSSPHSY-NH2
modifications: ends and bridges not checked
Usually IC50 stands for the concentration that gives 50% inhibition. As to B1, the half-inhibitory concentration (IC50) came to 24 nM in experiment [1], 1000 nM in experiment [2], 3.6 nM in experiment [3] and 18 nM in experiment [4].

B2: AFP-6 analog SEQ ID NO: 36 (peptide)
peptide: VGCVLGTCQVQNLSHRLWQLRQDSAPVEPSSPHSY-NH2
modifications: ends and bridges not checked
On to B2, for which the half-maximal inhibitory concentration (IC50) is 198 nM in experiment [1], 1000 nM in experiment [2], 14 nM in experiment [3] and 39 nM in experiment [4].

B3: AFP-6 analog SEQ ID NO: 27 (peptide)
peptide: VGMVLGTMQVQNLSHRLWQLRQDSAPVDPSSPHSY-NH2
Molecule B3 had an IC50 in experiment [2] of 1000 nM.

B4: AFP-6 analog SEQ ID NO: 16 (peptide)
peptide: TQAQLLRVGCVLGTCQVQNLSHRLWQLRQDSAPVDPSSPHSY-NH2
modifications: ends and bridges not checked
For B4, the IC50 turned out to be 22 nM in experiment [1], 1000 nM in experiment [2], 1.5 nM in experiment [3] and 21 nM in experiment [4].

B5: AFP-6 analog SEQ ID NO: 21 (peptide)
peptide: TQAQLLRVGCNTATCQVQNLSHRLWQLMGPAGRQDSAPVDPSSPHSY-NH2
modifications: ends and bridges not checked
With B5, the IC50 was found to be 17 nM in experiment [1], 47 nM in experiment [2], 8.5 nM in experiment [3] and 8.3 nM in experiment [4].

B6: AFP-6 analog SEQ ID NO: 25 (peptide)
peptide: TQAQLLRVGMVLGTMQVQNLSHRLWQLMGPAGRQDSAPVDPSSPHSY-NH2
Take B6: the half-maximal inhibitory concentration (IC50) came to 120 nM in experiment [2], 80 nM in experiment [3] and 139 nM in experiment [4].

B7: AFP-6 analog SEQ ID NO: 32 (peptide)
peptide: TQAQLLRVGCVLGTCQVQNLSHRLWQLMGPAGRQESAPVEPSSPHSY-NH2
modifications: ends and bridges not checked
Take B7: the IC50 is 1000 nM in experiment [1], 7.1 nM in experiment [2], 2.3 nM in experiment [3] and 16 nM in experiment [4].

B8: AFP-6 analog SEQ ID NO: 31 (peptide)
peptide: GCNTATCQVQNLSHRLWQLRQDSAPVDPSSPHSY-NH2
modifications: ends and bridges not checked
With B8, the IC50 in experiment [1] was found to be 51 nM; in experiment [2], 1000 nM; in experiment [3], 18 nM; in experiment [4] it was 12 nM.

B9: AFP-6 analog SEQ ID NO: 37 (peptide)
peptide: GCNTATCQVQNLSHRLWQLRQDSAPVEPSSPHSY-NH2
modifications: ends and bridges not checked
Take B9: the concentration for half-maximal inhibition (IC50) turned out to be 121 nM in experiment [1], 1000 nM in experiment [2], 130 nM in experiment [3] and 39 nM in experiment [4].

B10: AFP-6 analog SEQ ID NO: 30 (peptide)
peptide: VCNTATCQVQNLSHRLWQLRQDSAPVDPSSPHSY-NH2
modifications: ends and bridges not checked
Regarding B10, the IC50 is 128 nM in experiment [1], 1000 nM in experiment [2], 37 nM in experiment [3] and 19 nM in experiment [4].

B11: Human AFP-6 [8-47] (peptide)
peptide: VGCVLGTCQVQNLSHRLWQLMGPAGRQDSAPVDPSSPHSY-NH2
modifications: not fully specified; ends and bridges not checked
As to B11, the IC50 came out at 24 nM in experiment [1], 6.4 nM in experiment [2] and 12 nM in experiment [4].

B12: AFP-6 analog SEQ ID NO: 35 (peptide)
peptide: VGCVLGTCQVQNLSHRLWQLMGPAGRQDSAPVEPSSPHSY-NH2
modifications: ends and bridges not checked
In the case of B12, the IC50 in experiment [1] worked out at 153 nM; in experiment [2], 37 nM; in experiment [3] it was 4.7 nM; in experiment [4], 17 nM.

B13: AFP-6 analog SEQ ID NO: 19 (peptide)
peptide: CVLGTCQVQNLSHRLWQLRQESAPVEPSSPHSY-NH2
modifications: ends and bridges not checked
For the molecule B13, the half-maximal inhibitory concentration (IC50) in experiment [1] amounted to 247 nM; in experiment [2], 1000 nM; in experiment [3] it was 12.7 nM; in experiment [4], 29 nM.

B14: AFP-6 analog SEQ ID NO: 12 (peptide)
peptide: CVLGTCQVQNLSHRLWQLMGPAGRQDSAPVDPSSPHSY-NH2
modifications: ends and bridges not checked
Regarding B14, the 50% inhibitory concentration (IC50) in experiment [1] is 198 nM; in experiment [2] it was 18 nM; in experiment [3], 2.2 nM; in experiment [4] it was 9.8 nM.

B15: AFP-6 analog SEQ ID NO: 29 (peptide)
peptide: VGCGNLSTCQVQNLSHRLWQLRQDSAPVDPSSPHSY-NH2
modifications: ends and bridges not checked
As for B15, the IC50 in experiment [1] turned out to be 9 nM; in experiment [2] it was 1000 nM; in experiment [3], 111 nM; in experiment [4], 7.5 nM.

B16: AFP-6 analog SEQ ID NO: 14 (peptide)
peptide: VQNLSHRLWQLMGPAGRQDSAPVDPSSPHSY-NH2
In experiment [2], B16 had an IC50 of 59 nM.

B17: AFP-6 analog SEQ ID NO: 17 (peptide)
peptide: TQAQLLRVGCVLGTCQVQNLSHRLWQLDSAPVDPSSPHSY-NH2
modifications: ends and bridges not checked
Regarding B17, the half-maximal inhibitory concentration (IC50) came out at 304 nM in experiment [2], 10.5 nM in experiment [3] and 209 nM in experiment [4].

B18: AFP-6 analog SEQ ID NO: 38 (peptide)
peptide: GCSNLSTCQVQNLSHRLWQLRQDSAPVEPSSPHSY-NH2
modifications: ends and bridges not checked
Regarding B18, the values for the concentration for half-maximal inhibition (IC50) in experiment [1], in experiment [3] and in experiment [4] were 17 nM, 208 nM and 9.9 nM, respectively.

B19: AFP-6 analog SEQ ID NO: 39 (peptide)
peptide: GCGNLSTCQVQNLSHRLWQLRQDSAPVEPSSPHSY-NH2
modifications: ends and bridges not checked
With B19, the IC50 in experiment [1] was 31 nM; in experiment [2], 1000 nM; in experiment [4], 14 nM.

B20: AFP-6 analog SEQ ID NO: 40 (peptide)
peptide: GCVLGTCQVQNLSHRLWQLRQESAPVEPSSPHSY-NH2
modifications: ends and bridges not checked
Turning to B20, the concentration for half-maximal inhibition (IC50) in experiment [2] was determined as 1000 nM.

B21: AFP-6 analog SEQ ID NO: 10 (peptide)
peptide: RVGCVLGTCQVQNLSHRLWQLMGPAGRQDSAPVDPSSPHSY-NH2
modifications: ends and bridges not checked
Consider B21, for which the half-inhibitory concentration (IC50) in experiment [1] stood at 55 nM; in experiment [2], 7.1 nM; in experiment [3], 1.4 nM; in experiment [4], 5.1 nM.

B22: AFP-6 analog SEQ ID NO: 11 (peptide)
peptide: GCVLGTCQVQNLSHRLWQLMGPAGRQDSAPVDPSSPHSY-NH2
modifications: ends and bridges not checked
As to B22, the IC50 in experiment [1] is 27 nM; in experiment [2] it was 11 nM; in experiment [3], 0.93 nM; in experiment [4], 7.7 nM.

B23: AFP-6 analog SEQ ID NO: 26 (peptide)
peptide: GMVLGTMQVQNLSHRLWQLMGPAGRQDSAPVDPSSPHSY-NH2
With B23, the IC50 stood at 37 nM in experiment [2], 26 nM in experiment [3] and 48 nM in experiment [4].
